Data on one molecule can be found in paper PMC9225179, “RNA Polymerase II Transcription in Pneumocystis: TFIIB from Pneumocystis carinii Can Replace the Transcriptional Functions of Fission Yeast Schizosaccharomyces pombe TFIIB In Vivo and In Vitro” (International Journal of Molecular Sciences, 2022).

The target of the assay is T1, Schizosaccharomyces pombe TFIIB (S. pombe, UniProt O13749 1-340).
T1 construct: General transcription factor TFIIB of S. pombe (sua7), 340 aa as printed; also called SpIIB; fission yeast TFIIB
T1 sequence (looked up): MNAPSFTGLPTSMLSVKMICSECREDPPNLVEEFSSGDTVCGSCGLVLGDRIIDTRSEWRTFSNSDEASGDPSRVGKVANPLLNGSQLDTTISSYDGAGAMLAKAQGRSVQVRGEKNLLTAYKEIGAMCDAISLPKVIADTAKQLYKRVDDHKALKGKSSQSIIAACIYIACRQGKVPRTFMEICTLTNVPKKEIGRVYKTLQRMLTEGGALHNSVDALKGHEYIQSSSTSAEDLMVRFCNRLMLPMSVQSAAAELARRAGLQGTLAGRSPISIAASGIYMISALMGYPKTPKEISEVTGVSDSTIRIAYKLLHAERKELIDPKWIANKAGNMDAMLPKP
Description: native gel or EMSA; TBP and TFIIB (20 ng each) on 32P-labelled Ad-MLP TATA box probe; 20 mM HEPES pH 7.9, 50 mM KCl, 5 mM MgCl2, 5% glycerol; 15 min at 30 °C; 5% polyacrylamide gel at 4 °C. The following applies: both partners purified.

B1: Schizosaccharomyces pombe TATA-binding protein (natural protein, S. pombe, UniProt P17871 1-231, looked up)
chain: MDFALPTTASQASAFMNNSSLTFPVLPNANNEATNETADSGDAEVSKNEGVSGIVPTLQNIVATVNLDCRLDLKTIALHARNAEYNPKRFAAVIMRIREPKSTALIFASGKMVVLGGKSEDDSKLASRKYARIIQKLGFNAKFTDFKIQNIVGSCDVKFPIRLEGLAYSHGTFSSYEPELFPGLIYRMVKPKVVLLIFVSGKIVLTGAKVREEIYQAFEAIYPVLSEFRKH
notes: also called TBP; fission yeast TBP
With B1, the binding result was “binds”.
